Source: PMC3918160, “Biochemical studies of the multicopper oxidase (small laccase) from Streptomyces coelicolor using bioactive phytochemicals and site-directed mutagenesis” (Microbial Biotechnology, 2013)

Experiments:
purified protein = substrate: O=c1c(O)c(-c2cc(O)c(O)c(O)c2)oc2cc(O)cc(O)c12; assay: purified protein; settings: 60°C, optimal pH for the substrate, 5% (v/v) DMSO
[1] = substrate: O=c1c(O)c(-c2ccc(O)c(O)c2)oc2cc(O)cc(O)c12; assay: initial rates, absorbance, Michaelis-Menten fit; type: biochemical, Streptomyces coelicolor; settings: 60°C, optimal pH for the substrate, 5% (v/v) DMSO
[2] = substrate: CCn1c(=NN=c2sc3cc(S(=O)(=O)O)ccc3n2CC)sc2cc(S(=O)(=O)O)ccc21; assay: initial rates, absorbance, Michaelis-Menten fit; type: biochemical, Streptomyces coelicolor; settings: 60°C, optimal pH for the substrate
[3] = substrate: COc1cccc(OC)c1O; assay: initial rates, absorbance, Michaelis-Menten fit; type: biochemical, Streptomyces coelicolor; settings: 60°C, optimal pH for the substrate
[4] = substrate: O=c1c(O)c(-c2ccc(O)cc2O)oc2cc(O)cc(O)c12; assay: initial rates, absorbance, Michaelis-Menten fit; type: biochemical, Streptomyces coelicolor; settings: 60°C, optimal pH for the substrate

| Protein | Km (purified protein) [µM] | kcat (purified protein) [s⁻¹] | Km [1] [µM] | Km ([2]; universal buffer) [µM] | Km ([3]; universal buffer) [µM] | Km ([4]; 5% (v/v) DMSO) [µM] | Km [2] [µM] | kcat [2] [s⁻¹] | Km [3] [µM] | kcat [3] [s⁻¹] | Km ([4]; DMSO) [µM] | kcat ([4]; DMSO) [s⁻¹] |
| --- | --- | --- | --- | --- | --- | --- | --- | --- | --- | --- | --- | --- |
| small laccase (SLAC), SCO6712 (Streptomyces coelicolor A3(2)) (protein) AKGITARTAPAGGEVRHLKMYAEKLADGQMGYGFEKGKASVPGPLIEVNEGDTLHIEFTNTMDVRASLHVHGLDYEISSDGTAMNKSDVEPGGTRTYTWRTHKPGRRDDGTWRPGSAGYWHYHDHVVGTEHGTGGIRNGLYGPVIVRRKGDVLPDATHTIVFNDMTINNRKPHTGPDFEATVGDRVEIVMITHGEYYHTFHMHGHRWADNRTGILTGPDDPSRVIDNKITGPADSFGFQIIAGEGVGAGAWMYHCHVQSHSDMGMVGLFLVKKPDGTIPGYEPHEHGGATAKSGESGEPTGGAAAHEHEH | 900 ± 300 | 8.1 ± 0.8 | 1200 ± 400 | 800 ± 100 | 1100 ± 200 | 1500 ± 200 | – | – | – | – | – | – |
| small laccase (SLAC), SCO6712 (Streptomyces coelicolor A3(2); S292A) (protein) AKGITARTAPAGGEVRHLKMYAEKLADGQMGYGFEKGKASVPGPLIEVNEGDTLHIEFTNTMDVRASLHVHGLDYEISSDGTAMNKSDVEPGGTRTYTWRTHKPGRRDDGTWRPGSAGYWHYHDHVVGTEHGTGGIRNGLYGPVIVRRKGDVLPDATHTIVFNDMTINNRKPHTGPDFEATVGDRVEIVMITHGEYYHTFHMHGHRWADNRTGILTGPDDPSRVIDNKITGPADSFGFQIIAGEGVGAGAWMYHCHVQAHSDMGMVGLFLVKKPDGTIPGYEPHEHGGATAKSGESGEPTGGAAAHEHEH | – | – | – | – | – | – | 2400 ± 200 | 11.1 ± 0.3 | 120 ± 20 | 0.93 ± 0.02 | 1600 ± 400 | 4.0 ± 0.4 |
